# Reference: patent publication US20250009750A1, “METHODS OF TREATING DISORDERS ASSOCIATED WITH EYA OVEREXPRESSION AND MUTATIONS” (The Board of Regents of the University of Texas System, priority 2023, published 2025)
# Substitutions are numbered along the chain they refer to. Names and notes keep the numbering of the source. “Also recorded” adds a separate entry of the source.
# B1: 1-365: N-terminally m-cherry-tagged EYA4 (aa 1-365), purified (protein, UniProt O95677 1-365, looked up, fragment)
# chain: MEDSQDLNEQSVKKTCTESDVSQSQNSRSMEMQDLASPHTLVGGGDTPGSSKLEKSNLSSTSVTTNGTGGENMTVLNTADWLLSCNTPSSATMSLLAVKTEPLNSSETTATTGDGALDTFTGSVITSSGYSPRSAHQYSPQLYPSKPYPHILSTPAAQTMSAYAGQTQYSGMQQPAVYTAYSQTGQPYSLPTYDLGVMLPAIKTESGLSQTQSPLQSGCLSYSPGFSTPQPGQTPYSYQMPGSSFAPSSTIYANNSVSNSTNFSGSQQDYPSYTAFGQNQYAQYYSASTYGAYMTSNNTADGTPSSTSTYQLQESLPGLTNQPGEFDTMQSPSTPIKDLDERTCRSSGSKSRGRGRKNNPSPPPD
# modifications: N-terminal mCherry tag
# notes: N-terminally m-cherry-tagged EYA4 (aa 1-365), purified
# B2: WT: purified wild type RAD51 (protein, UniProt Q06609 2-339, looked up)
# DNA repair protein RAD51 …: AMQMQLEANADTSVEEESFGPQPISRLEQCGINANDVKKLEEAGFHTVEAVAYAPKKELINIKGISEAKADKILAEAAKLVPMGFTTATEFHQRRSEIIQITTGSKELDKLLQGGIETGSITEMFGEFRTGKTQICHTLAVTCQLPIDRGGGEGKAMYIDTEGTFRPERLLAVAERYGLSGSDVLDNVAYARAFNTDHQTQLLYQASAMMVESRYALLIVDSATALYRTDYSGRGELSARQMHLARFLRMLLRLADEFGVAVVITNQVVAQVDGAAMFAADPKKPIGGNIIAHASTTRLYLRKGRGETRICKIYDSPCLPEAEAMFAINADGVGDAKD
# B3: YF, YF: double-mutant RAD51 (Y54F, Y315F) that cannot be phosphorylated (protein, UniProt Q06609 2-339, looked up, variant Y54F Y315F)
# DNA repair protein RAD51 …: B2 DNA repair protein RAD51 … with Y53F, Y314F
# B4: YD, YD: double phospho-mimetic RAD51 (Y54D, Y315D) (protein, UniProt Q06609 2-339, looked up, variant Y54D Y315D)
# DNA repair protein RAD51 …: B2 DNA repair protein RAD51 … with Y53D, Y314D
# B5: oligo P1 ssDNA (ssDNA)
# DNA: TTATATCCTTTACTTTGAATTCTATGTTTAACCTTTTACTTATTTTGTATTAGCCGGATCCTTATTTCAATTATGTTCAT
# B6: P1/P2 dsDNA (dsDNA)
# DNA 1: B5 DNA
# DNA 2: ATGAACATAATTGAAATAAGGATCCGGCTAATACAAAATAAGTAAAAGGTTAAACATAGAATTCAAAGTAAAGGATATAA
# B7: SQTQ: phosphomimetic EYA4 double mutant in the ATM-ATR consensus site SQTQ (S209D, T211D) (protein, UniProt O95677 1-639, looked up, variant S209D T211D)
# Protein phosphatase EYA4: MEDSQDLNEQSVKKTCTESDVSQSQNSRSMEMQDLASPHTLVGGGDTPGSSKLEKSNLSSTSVTTNGTGGENMTVLNTADWLLSCNTPSSATMSLLAVKTEPLNSSETTATTGDGALDTFTGSVITSSGYSPRSAHQYSPQLYPSKPYPHILSTPAAQTMSAYAGQTQYSGMQQPAVYTAYSQTGQPYSLPTYDLGVMLPAIKTESGLDQDQSPLQSGCLSYSPGFSTPQPGQTPYSYQMPGSSFAPSSTIYANNSVSNSTNFSGSQQDYPSYTAFGQNQYAQYYSASTYGAYMTSNNTADGTPSSTSTYQLQESLPGLTNQPGEFDTMQSPSTPIKDLDERTCRSSGSKSRGRGRKNNPSPPPDSDLERVFVWDLDETIIVFHSLLTGSYAQKYGKDPPMAVTLGLRMEEMIFNLADTHLFFNDLEECDQVHIDDVSSDDNGQDLSTYSFATDGFHAAASSANLCLPTGVRGGVDWMRKLAFRYRRVKELYNTYKNNVGGLLGPAKRDAWLQLRAEIEGLTDSWLTNALKSLSIISTRSNCINVLVTTTQLIPALAKVLLYSLGGAFPIENIYSATKIGKESCFERIMQRFGRKVVYVVIGDGVEEEQAAKKHNMPFWRISSHSDLLALHQALELEYL
# Legend:
# cells depleted for EYA4 = experiment: MTT cell cytotoxicity assay, genotoxic stress (ATR inhibitor or hydroxyurea); format: cell-based; details: EYA4-depleted versus control cells, FIG. 21B, FIG. 22A
# Protocol: For genotoxic stress, cells were seeded into 96-well plates (200 cells/well). Twenty-four hours after seeding, increasing concentrations of ATR inhibitor (AZ20) or hydroxyurea were added to the culture (24 h pulse). Cell cytotoxicity was measured after 96 h following manufacturer's protocol (Abcam ab211091). Briefly, 50 μL serum-free media (no phenol red) and 50 μL MTT reagent was added to each well and incubated at 37° C. for 3 h. MTT media was replaced with 150 μL of MTT solvent and incubated with agitation for 15 mn. Absorbance was measured at 590 nm. The cell viability was calculated using the following equation: […]
# TKCC02.1 cells = experiment: Survival of TKCC02.1 cells, alone and in combination; format: cell-based; details: TKCC02.1, at doses tested, FIG. 35, FIG. 36
# Protocol: Similar doses of EYA4i were tested alone and in combination with PARPi (olaparib) or Camptothecin (CPT).
# [1] = system: HeLa cells (empty vector or knocked down for EYA4); experiment: MTT cell cytotoxicity assay with PARP inhibitor; format: cell-based; details: EYA4-depleted versus control cells, FIG. 5D
# Protocol: HeLa cells (empty vector or knocked down for EYA4) were seeded in 96-well plates. After 24 hrs, increasing concentrations of PARP inhibitor (olaparib) were added. Cell cytotoxicity was measured following manufacturer's protocol (Abcam ab211091). Briefly, 50 μL serum-free media and 50 μL MTT reagent was added to each well and incubated at 37° C. for 3 hrs. MTT media was replaced with 150 μL of MTT solvent and incubated with agitation for 15 min. Absorbance was measured at 590 nm.
# cy5-labeled dsDNA = experiment: Microscale thermophoresis (MST) DNA binding, dsDNA
# Protocol: (§1) A total of 12 concentrations of ligand proteins (e.g., EYA (1-365)) were serially diluted by 1:1 using MST buffer from 5 uM to 2.4 nM, 10 ul of each dose of ligand protein was mixed with 10 ul of cy5-labeled dsDNA/ssDNA supernatant. The mixture of EYA and DNA was loaded into premium capillaries for MST assay with parameters set up at auto-detected excitation power and medium MST power. Binding affinity was analyzed by MO. Affinity Analysis software (version 2.1.3, NanoTemper Technologies) using the signal from an MST-on time of 20 s. Three individual experiments were merged to generate standard deviation.
# (§2) Cy5-labeled oligo P1 (T. T. Paull Curr Opin Genet Dev 71, 55-62 (2021)). from IDT ([…]-[…]; SEQ ID NO:1) was used as the ssDNA substrate. dsDNA was generated by annealing Cy5-labeled oligo P1 with its exact complement P2 […]-AAATAAGTAAAAG […] (SEQ ID NO:2). The annealed product was purified by SDS-PAGE then concentrated and quantified. For the long system assays, substrates were sourced from NEB. The ssDNA is the ϕX174 virion DNA and the dsDNA its replicative form ϕX174 RF I DNA.
# cy5-labeled ssDNA = experiment: Microscale thermophoresis (MST) DNA binding, ssDNA
# Protocol: as §1, §2
# RAD51 Y54F,Y315F [2] = target: T1, RAD51 Y54F,Y315F (UniProt Q06609 Q06609:1-339, Y54F,Y315F); experiment: MST; +/- 7.3 nM, Hill 3.31; details: tags: pET11 construct, E. coli BLR(DE3)pLysS; label: Cy5
# RAD51 WT [3] = target: T2, RAD51 WT (UniProt Q06609 Q06609:1-339); experiment: MST; +/- 18.1 nM, Hill 2.66; details: tags: pET11 construct, E. coli BLR(DE3)pLysS; label: Cy5
# RAD51 Y54D,Y315D = RAD51 Y54D,Y315D (UniProt Q06609 Q06609:1-339, Y54D,Y315D); experiment: MST; +/- 0.4951 uM, Hill 2.67; details: tags: pET11 construct, E. coli BLR(DE3)pLysS; label: Cy5 on P1
# RAD51 Y54F,Y315F [4] = target: T1, RAD51 Y54F,Y315F; experiment: MST; +/- 11.7 nM, Hill 7.07; details: tags: pET11 construct, E. coli BLR(DE3)pLysS; label: Cy5 on P1
# RAD51 WT [5] = target: T2, RAD51 WT; experiment: MST; +/- 162.5 nM, Hill 2.30; details: tags: pET11 construct, E. coli BLR(DE3)pLysS; label: Cy5 on P1
# [6] = EYA4 constructs binding dsDNA, Table 4
# [7] = EYA4 constructs binding ssDNA, Table 4
# [8] = RAD51 proteins binding dsDNA, Table 5
# [9] = RAD51 proteins binding ssDNA, Table 5
# T2 sequence (Q06609 whole entry, one chain of several): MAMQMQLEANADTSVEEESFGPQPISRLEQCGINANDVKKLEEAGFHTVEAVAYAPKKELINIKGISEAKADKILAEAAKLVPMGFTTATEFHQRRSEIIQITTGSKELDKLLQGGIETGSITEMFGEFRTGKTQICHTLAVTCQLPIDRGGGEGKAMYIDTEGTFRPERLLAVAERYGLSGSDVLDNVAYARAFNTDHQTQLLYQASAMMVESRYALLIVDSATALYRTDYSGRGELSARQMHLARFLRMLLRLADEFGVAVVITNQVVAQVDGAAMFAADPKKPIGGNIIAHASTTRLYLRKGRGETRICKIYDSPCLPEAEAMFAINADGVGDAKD
molecule,measurement,setting,value
C[C@@H]1COCCN1c1cc(C2(S(C)(=O)=O)CC2)nc(-c2cccc3[nH]ccc23)n1 [AZ20],sensitivity of cells depleted for EYA4 (MTT),cells depleted for EYA4,sensitive
CC[C@@]1(O)C(=O)OCc2c1cc1n(c2=O)Cc2cc3ccccc3nc2-1 [CPT],lethality / efficacy as single agent,TKCC02.1 cells,not lethal; also recorded: neither PARPi nor CPT are lethal
O=C(c1cc(Cc2n[nH]c(=O)c3ccccc23)ccc1F)N1CCN(C(=O)C2CC2)CC1 [Olaparib],lethality / efficacy as single agent,TKCC02.1 cells; listed as PARPi,not lethal; also recorded: neither PARPi nor CPT are lethal
same,"sensitivity of cells depleted for EYA4 (survival, MTT)",[1],sensitive
NC(=O)NO [hydroxyurea],sensitivity of cells depleted for EYA4 (MTT),cells depleted for EYA4,sensitive
B1,EC50,cy5-labeled dsDNA; [6],733 nM
same,Kd,"cy5-labeled dsDNA; dsDNA binding, FIG. 3C",732 nM
same,EC50,cy5-labeled ssDNA; [7],303 nM
same,Kd,"cy5-labeled ssDNA; ssDNA binding, FIG. 3C",303 nM
B2,EC50,cy5-labeled dsDNA; [8],1160 nM
same,EC50,cy5-labeled ssDNA; [9],515 nM
B3,EC50,cy5-labeled dsDNA; [8],561 nM
same,EC50,cy5-labeled ssDNA; [9],427 nM
B4,EC50,cy5-labeled dsDNA; [8],3070 nM
same,EC50,cy5-labeled ssDNA; [9],> 5000 nM
B5,EC50,"RAD51 Y54F,Y315F [2]",427 nM
same,EC50,RAD51 WT [3],515 nM
B6,EC50,"RAD51 Y54D,Y315D",3070 nM
same,EC50,"RAD51 Y54F,Y315F [4]",561 nM
same,EC50,RAD51 WT [5],1160 nM
B7,Kd,"cy5-labeled dsDNA; DNA (type not stated), FIG. 3E",> 2000 nM
same,EC50,cy5-labeled dsDNA; [6],2200 nM
same,EC50,cy5-labeled ssDNA; [7],515 nM
